The target in assay [1] is muscle-type nicotinic acetylcholine receptor from the electric organ of Torpedo californica (Torpedo californica (endogenous in electric organ)) (UniProt P02710). Nature of the assay: radioligand binding.
Assay [2] has the same target. Description: radioligand binding. The source holds these as a separate data set.

The term IC50 denotes the concentration that inhibits the measured activity by half. A higher IC50 goes with weaker potency.

Read-outs that look alike come from different tables or passages of the source.

Chain of UniProt P02710 (P02710 25-461 limits assumed, chain 1 of 4): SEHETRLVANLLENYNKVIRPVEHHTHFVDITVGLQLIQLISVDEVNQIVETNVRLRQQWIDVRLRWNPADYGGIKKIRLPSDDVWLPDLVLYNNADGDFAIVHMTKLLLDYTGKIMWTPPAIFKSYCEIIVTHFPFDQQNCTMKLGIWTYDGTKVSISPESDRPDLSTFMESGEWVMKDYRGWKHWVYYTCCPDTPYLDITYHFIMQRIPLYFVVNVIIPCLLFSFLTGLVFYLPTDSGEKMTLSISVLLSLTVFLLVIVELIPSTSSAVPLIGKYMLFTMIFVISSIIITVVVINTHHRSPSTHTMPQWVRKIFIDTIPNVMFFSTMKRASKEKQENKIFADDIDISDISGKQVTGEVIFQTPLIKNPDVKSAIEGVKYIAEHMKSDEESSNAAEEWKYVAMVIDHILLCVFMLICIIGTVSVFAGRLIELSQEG
Chain of UniProt P02710 (P02712 25-493 limits assumed, chain 2 of 4, further chain): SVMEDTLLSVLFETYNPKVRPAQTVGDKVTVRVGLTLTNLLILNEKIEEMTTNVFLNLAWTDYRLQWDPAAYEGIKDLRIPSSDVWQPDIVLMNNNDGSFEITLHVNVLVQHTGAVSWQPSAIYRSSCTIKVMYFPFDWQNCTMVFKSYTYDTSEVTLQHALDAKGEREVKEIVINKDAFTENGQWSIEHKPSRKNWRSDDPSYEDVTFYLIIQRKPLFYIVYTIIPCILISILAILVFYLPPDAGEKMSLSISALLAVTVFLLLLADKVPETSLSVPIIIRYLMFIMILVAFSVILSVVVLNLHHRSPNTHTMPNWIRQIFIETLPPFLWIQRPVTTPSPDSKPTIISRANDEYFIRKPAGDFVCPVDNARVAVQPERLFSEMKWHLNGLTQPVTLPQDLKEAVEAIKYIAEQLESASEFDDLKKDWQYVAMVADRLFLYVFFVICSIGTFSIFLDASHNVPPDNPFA
Chain of UniProt P02710 (P02714 18-506 limits assumed, chain 3 of 4, further chain): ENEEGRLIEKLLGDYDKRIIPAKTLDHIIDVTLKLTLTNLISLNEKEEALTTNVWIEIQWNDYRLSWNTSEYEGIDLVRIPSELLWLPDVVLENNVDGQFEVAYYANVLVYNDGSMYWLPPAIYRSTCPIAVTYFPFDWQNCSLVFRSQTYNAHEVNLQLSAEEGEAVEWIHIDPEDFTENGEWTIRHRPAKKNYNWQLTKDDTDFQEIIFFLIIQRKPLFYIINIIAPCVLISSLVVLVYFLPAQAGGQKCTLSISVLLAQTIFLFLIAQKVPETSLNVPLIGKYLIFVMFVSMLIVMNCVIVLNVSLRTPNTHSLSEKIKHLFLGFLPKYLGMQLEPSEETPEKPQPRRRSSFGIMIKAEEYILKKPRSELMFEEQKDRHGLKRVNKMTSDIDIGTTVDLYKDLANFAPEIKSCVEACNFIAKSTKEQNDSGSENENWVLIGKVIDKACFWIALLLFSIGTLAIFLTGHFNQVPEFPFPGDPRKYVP
Chain of UniProt P02710 (P02718 22-522 limits assumed, chain 4 of 4, further chain): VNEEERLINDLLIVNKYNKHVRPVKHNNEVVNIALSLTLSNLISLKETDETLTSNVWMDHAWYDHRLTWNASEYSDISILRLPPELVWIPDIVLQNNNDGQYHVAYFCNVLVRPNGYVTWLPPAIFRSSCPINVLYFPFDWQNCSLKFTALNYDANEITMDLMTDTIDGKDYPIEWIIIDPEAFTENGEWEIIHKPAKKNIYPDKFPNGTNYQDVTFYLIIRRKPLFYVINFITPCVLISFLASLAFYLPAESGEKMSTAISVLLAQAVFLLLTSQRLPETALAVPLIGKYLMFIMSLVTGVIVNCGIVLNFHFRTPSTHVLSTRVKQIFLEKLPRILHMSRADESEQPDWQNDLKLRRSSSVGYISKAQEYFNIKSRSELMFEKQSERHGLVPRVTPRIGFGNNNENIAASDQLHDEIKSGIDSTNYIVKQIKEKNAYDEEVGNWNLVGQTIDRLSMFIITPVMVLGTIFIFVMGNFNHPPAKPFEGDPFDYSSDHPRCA

B1: recombinant SLURP-1 with one additional N-terminal Met residue (natural protein)
chain: MLKCYTCKEPMTSASCRTITRCKPEDTACMTTLVTVEAEYPFNQSPVVTRSCSSSCVATDPDSIGAAHLIFCCFRDLCNSEL
On to B1, for which the results for the half-maximal inhibitory concentration (IC50) in assay [1] and in assay [2] were 9.55 µM and 10.7 µM, respectively.

B2: synthetic SLURP-1 (natural protein)
chain: LKCYTCKEPMTSASCRTITRCKPEDTACMTTLVTVEAEYPFNQSPVVTRSCSSSCVATDPDSIGAAHLIFCCFRDLCNSEL
Regarding B2, the IC50 in assay [1] came out at 3.92 µM; in assay [2] it was 4.05 µM.

The values are drawn from paper PMC10707033.
